The text below walks through data of article PMC9949273 (The Journal of Cell Biology, 2023).

B1: GST-tagged ATL3 (natural protein, human, UniProt Q6DD88 1-541, looked up)
chain: MLSPQRVAAAASRGADDAMESSKPGPVQVVLVQKDQHSFELDEKALASILLQDHIRDLDVVVVSVAGAFRKGKSFILDFMLRYLYSQKESGHSNWLGDPEEPLTGFSWRGGSDPETTGIQIWSEVFTVEKPGGKKVAVVLMDTQGAFDSQSTVKDCATIFALSTMTSSVQIYNLSQNIQEDDLQQLQLFTEYGRLAMDEIFQKPFQTLMFLVRDWSFPYEYSYGLQGGMAFLDKRLQVKEHQHEEIQNVRNHIHSCFSDVTCFLLPHPGLQVATSPDFDGKLKDIAGEFKEQLQALIPYVLNPSKLMEKEINGSKVTCRGLLEYFKAYIKIYQGEDLPHPKSMLQATAEANNLAAAASAKDIYYNNMEEVCGGEKPYLSPDILEEKHCEFKQLALDHFKKTKKMGGKDFSFRYQQELEEEIKELYENFCKHNGSKNVFSTFRTPAVLFTGIVALYIASGLTGFIGLEVVAQLFNCMVGLLLIALLTWGYIRYSGQYRELGGAIDFGAAYVLEQASSHIGNSTQATVRDAVVGRPSMDKKAQ

Experiment [1] concerns the target ATL2-1 (major splice isoform of ATL2) (human, UniProt Q8NHH9 1-583). The experiment can be described thus: cross-linking.
In the experiment “GST-tagged ATL3” the target is B1. The experiment can be described thus: pull-down.

For B1, the binding result in experiment [1] was “binds”.

B2: His6-tagged N-terminal cytoplasmic domain of ATL2 (1–480) (domain or fragment, human, UniProt Q8NHH9 1-480, looked up)
chain: MAEGDEAARGQQPHQGLWRRRRTSDPSAAVNHVSSTTSLGENYEDDDLVNSDEVMKKPCPVQIVLAHEDDHNFELDEEALEQILLQEHIRDLNIVVVSVAGAFRKGKSFLLDFMLRYMYNKDSQSWIGGNNEPLTGFTWRGGCERETTGIQVWNEVFVIDRPNGTKVAVLLMDTQGAFDSQSTIKDCATVFALSTMTSSVQVYNLSQNIQEDDLQHLQLFTEYGRLAMEEIYQKPFQTLMFLIRDWSYPYEHSYGLEGGKQFLEKRLQVKQNQHEELQNVRKHIHNCFSNLGCFLLPHPGLKVATNPSFDGRLKDIDEDFKRELRNLVPLLLAPENLVEKEISGSKVTCRDLVEYFKAYIKIYQGEELPHPKSMLQATAEANNLAAVAGARDTYCKSMEQVCGGDKPYIAPSDLERKHLDLKEVAIKQFRSVKKMGGDEFCRRYQDQLEAEIEETYANFIKHNDGKNIFYAARTPATLFA
B2: in the experiment with GST-tagged ATL3, the binding result is “binds”.
